Earlier results, collected in PMC11182772.

Target: Scc1-SA2 (Homo sapiens) (UniProt O60216)
Sequence (O60216 whole entry, chain 1 of 2): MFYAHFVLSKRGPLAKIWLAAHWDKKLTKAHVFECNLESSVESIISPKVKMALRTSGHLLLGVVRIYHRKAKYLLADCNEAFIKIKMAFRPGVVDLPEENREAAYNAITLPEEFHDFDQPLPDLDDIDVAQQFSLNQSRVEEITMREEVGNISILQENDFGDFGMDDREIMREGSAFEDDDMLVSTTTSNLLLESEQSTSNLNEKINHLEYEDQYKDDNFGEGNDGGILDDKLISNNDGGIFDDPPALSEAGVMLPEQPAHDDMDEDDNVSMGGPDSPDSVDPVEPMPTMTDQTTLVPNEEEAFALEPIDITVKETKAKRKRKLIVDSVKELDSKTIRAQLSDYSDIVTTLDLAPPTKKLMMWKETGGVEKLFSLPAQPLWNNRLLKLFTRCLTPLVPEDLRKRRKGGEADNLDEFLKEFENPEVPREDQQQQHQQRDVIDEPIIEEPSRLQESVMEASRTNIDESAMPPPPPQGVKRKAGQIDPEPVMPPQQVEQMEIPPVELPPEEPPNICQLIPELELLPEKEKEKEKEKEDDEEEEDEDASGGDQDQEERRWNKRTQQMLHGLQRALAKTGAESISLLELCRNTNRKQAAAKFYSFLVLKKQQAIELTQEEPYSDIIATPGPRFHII
Sequence (Q8N3U4 whole entry, chain 2 of 2, further chain): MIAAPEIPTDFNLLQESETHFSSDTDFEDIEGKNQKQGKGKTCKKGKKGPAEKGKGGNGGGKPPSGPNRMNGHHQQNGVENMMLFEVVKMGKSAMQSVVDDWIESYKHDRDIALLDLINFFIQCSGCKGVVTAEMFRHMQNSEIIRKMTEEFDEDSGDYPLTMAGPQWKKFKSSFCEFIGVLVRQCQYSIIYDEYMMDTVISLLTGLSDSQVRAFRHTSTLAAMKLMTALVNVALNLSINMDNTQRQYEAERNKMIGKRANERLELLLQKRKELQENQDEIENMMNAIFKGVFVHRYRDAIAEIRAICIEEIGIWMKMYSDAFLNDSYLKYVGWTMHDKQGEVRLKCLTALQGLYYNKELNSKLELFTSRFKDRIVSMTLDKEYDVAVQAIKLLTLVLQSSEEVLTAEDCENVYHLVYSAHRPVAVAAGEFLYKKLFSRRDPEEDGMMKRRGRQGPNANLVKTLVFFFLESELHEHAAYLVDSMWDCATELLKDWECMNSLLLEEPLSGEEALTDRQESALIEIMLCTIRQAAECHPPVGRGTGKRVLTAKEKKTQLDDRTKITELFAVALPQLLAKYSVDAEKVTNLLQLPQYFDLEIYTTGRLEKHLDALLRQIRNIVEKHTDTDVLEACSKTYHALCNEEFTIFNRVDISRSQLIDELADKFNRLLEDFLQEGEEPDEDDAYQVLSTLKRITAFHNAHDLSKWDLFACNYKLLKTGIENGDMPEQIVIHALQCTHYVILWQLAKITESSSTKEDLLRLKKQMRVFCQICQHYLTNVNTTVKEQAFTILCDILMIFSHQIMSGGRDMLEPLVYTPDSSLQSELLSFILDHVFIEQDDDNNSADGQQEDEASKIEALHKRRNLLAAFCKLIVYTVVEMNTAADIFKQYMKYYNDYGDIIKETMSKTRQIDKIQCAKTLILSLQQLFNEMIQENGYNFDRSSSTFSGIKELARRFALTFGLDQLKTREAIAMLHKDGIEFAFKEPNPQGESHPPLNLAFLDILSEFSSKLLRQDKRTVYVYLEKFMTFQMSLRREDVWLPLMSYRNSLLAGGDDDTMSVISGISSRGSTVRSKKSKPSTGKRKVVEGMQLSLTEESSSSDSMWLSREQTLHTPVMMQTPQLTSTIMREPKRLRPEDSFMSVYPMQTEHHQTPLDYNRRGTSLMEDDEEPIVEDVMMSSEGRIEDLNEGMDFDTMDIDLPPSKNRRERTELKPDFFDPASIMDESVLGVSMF

Kd: 4 µM
Substance: CENP-U DVFDF motif peptide (from UniProt Q71F23)
